Tests used:
Assay in all cases: EMSA
[1] = test system: Protamine 1 (WT P1) (Mus musculus (C57BL/6N background))
[2] = test system: Protamine 1 K49A (Mus musculus (C57BL/6N, P1 K49A/K49A knock-in))
[3] = test system: Protamine 2 precursor (pro P2) (Mus musculus (C57BL/6N, P1 K49A/K49A knock-in))
[4] = test system: Protamine 2, mature (WT P2) (Mus musculus (C57BL/6N background))

## ~300 bp linear DNA (280 bp PCR product)
[1]
  Kd: 680 nM
[2]
  Kd: 950 nM
[3]
  Kd: 840 nM
[4]
  Kd: 670 nM

Reference: paper doi:10.1101/2021.09.16.460631
